Data as given in article PMC10896300.

Molecular target: Recombinant 6×His-tagged CrMCA-II (Chlamydomonas reinhardtii)
Experiment: SEC; purified rCrMCA-II in buffer without DTT and Ca2+; with 1 mM DTT in the SEC buffer the dimer-to-monomer ratio decreased

Recombinant 6×His-tagged CrMCA-II (enzyme)
stoichiometry N: 2
